Experimental data as given in paper PMC7016264, “Redox requirements for ubiquitin-like urmylation of Ahp1, a 2-Cys peroxiredoxin from yeast” (Redox Biology, 2020).

Target: the molecule itself
Assay: SEC-MALS; proteins reduced with 50 mM DTT, exchanged into 20 mM HEPES pH 7.5, 100 mM NaCl, 1 mM TCEP, diluted to 125 uM; dimer to monomers

B1: His-tagged Ahp1, wild-type (recombinant) (enzyme, S. cerevisiae, UniProt P38013 1-176, looked up)
chain: MSDLVNKKFPAGDYKFQYIAISQSDADSESCKMPQTVEWSKLISENKKVIITGAPAAFSPTCTVSHIPGYINYLDELVKEKEVDQVIVVTVDNPFANQAWAKSLGVKDTTHIKFASDPGCAFTKSIGFELAVGDGVYWSGRWAMVVENGIVTYAAKETNPGTDVTVSSVESVLAHL
notes: Ahp1, 2-Cys peroxiredoxin of Saccharomyces cerevisiae; The printed mass of the His-tagged monomer is ~23.3 kDa (dimer 46.7 kDa) against ~19 kDa for untagged Ahp1, so vector-derived residues are probably present; also called wild-type Ahp1; wt Ahp1; source: E. coli, purified (His-tagged)
For B1, the “stoichiometry N” value was 2.
